Biological target: Biotinylated histone H3 peptide (aa 21-44) tri-methylated on K27 (UniProt P68431)
Assay: pull-down

GST-SUMO1-fused Pc2(1-100) (from UniProt O00257 1-100)
fold change of the amount bound against Pc2 (1-100): > 4 fold

Source: article PMC2879644
